Reference: patent US20170166631A1 (published 2017)
Like-named read-outs stand apart in the source and are kept apart here.

T1: HD21 (huntingtin exon 1 protein with 21 polyQ repeats after cleavage of the GST tag; aggregation reaction) (human, UniProt P42858 1-88)
T1 chain: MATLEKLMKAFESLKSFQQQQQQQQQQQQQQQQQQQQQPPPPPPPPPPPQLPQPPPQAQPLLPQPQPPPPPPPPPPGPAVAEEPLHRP

T2: BSA-coupled synthetic peptide of the P-rich domain sequence of huntingtin exon 1 (coupled to BSA)
T2 peptide: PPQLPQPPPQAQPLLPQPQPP

T3: HD49 (huntingtin exon 1 protein with 49 polyQ repeats after cleavage of the GST tag; aggregation reaction) (human, UniProt P42858 1-88)
T3 chain: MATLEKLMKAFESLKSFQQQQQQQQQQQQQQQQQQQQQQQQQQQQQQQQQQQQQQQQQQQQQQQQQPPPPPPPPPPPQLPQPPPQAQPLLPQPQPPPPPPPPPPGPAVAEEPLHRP

T4: BSA-coupled synthetic peptide of the 14 C-terminal amino acids of huntingtin exon 1 (coupled to BSA)
T4 peptide: PPGPAVAEEPLHRP


Experiments:
Assay in all cases: ELISA
[1] = target: T5, GST-HttExon1Q21 (recombinant huntingtin exon 1 protein with 21 polyQ repeats fused to an N-terminal GST tag) (;human, UniProt P08515 1-218 = GST; P42858 1-88)
Target sequence in this assay (P08515 1-218, tags or fused parts left off): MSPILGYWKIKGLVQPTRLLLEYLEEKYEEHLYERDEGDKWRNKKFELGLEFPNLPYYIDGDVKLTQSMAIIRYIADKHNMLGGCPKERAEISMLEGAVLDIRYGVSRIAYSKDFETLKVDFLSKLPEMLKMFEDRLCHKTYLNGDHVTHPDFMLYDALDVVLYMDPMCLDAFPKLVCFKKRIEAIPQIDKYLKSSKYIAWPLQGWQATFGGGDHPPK

[2] = target: T1, HD21 (huntingtin exon 1 protein with 21 …)
[3] = target: T2, BSA-coupled synthetic peptide of the …
[4] = target: T3, HD49 (huntingtin exon 1 protein with 49 …)
[5] = target: T5, GST-HttExon1Q21 (recombinant huntingtin …); remark: listed apart in the source
[6] = target: T1, HD21 (huntingtin exon 1 protein with 21 …)
[7] = target: T3, HD49 (huntingtin exon 1 protein with 49 …)
[8] = target: T4, BSA-coupled synthetic peptide of the 14 …
[9] = target: T5, GST-HttExon1Q21 (recombinant huntingtin …); remark: listed apart in the source
[10] = target: T1, HD21 (huntingtin exon 1 protein with 21 …)
[11] = target: T3, HD49 (huntingtin exon 1 protein with 49 …)
[12] = target: T5, GST-HttExon1Q21 (recombinant huntingtin …); remark: listed apart in the source
[13] = target: T1, HD21 (huntingtin exon 1 protein with 21 …)
[14] = target: T3, HD49 (huntingtin exon 1 protein with 49 …)
[15] = target: T5, GST-HttExon1Q21 (recombinant huntingtin …); remark: listed apart in the source
Target sequence in this assay (P08515 1-218, tags or fused parts left off): as above

[16] = target: T1, HD21 (huntingtin exon 1 protein with 21 …)
[17] = target: T3, HD49 (huntingtin exon 1 protein with 49 …)

Binder	EC50 [1] [nM]	EC50 [2] [nM]	EC50 [3] [nM]	EC50 [4] [nM]	EC50 [5] [nM]	EC50 [6] [nM]	EC50 [7] [nM]	EC50 [8] [nM]	EC50 [9] [nM]	EC50 [10] [nM]	EC50 [11] [nM]	EC50 [12] [nM]	EC50 [13] [nM]	EC50 [14] [nM]	EC50 [15] [nM]	EC50 [16] [nM]	EC50 [17] [nM]
NI-302.63F3 (antibody, V domains shown) VH: QVQLVQSGSAFKKPGTSVKVSCKASGYTFETRSMNWVRQAPGQGLEYMGWINTNTGNRTYVQAFRGRFVFSLDTSVSTAYLQISNLKTEDTAVYYCARGAGGGYWFDSWGQGTLVTVSS VL: DIQMTQSPDSLAVSLGERATINCKSNQSLFYSSNNNNYLAWYQHKSGQPPKLLVYWGSTRESGVPDRFSGSGSGTDFTLTISSLQAEDVAIYYCHQYYHNPYTFGQGTKLEIK	0.2	0.3	0.3	0.4	0.2	0.3	0.4	–	–	–	–	–	–	–	–	–	–
NI-302.72F10 (antibody, V domains shown) VH: EVQLVETGGGFVQPGGSLRLSCAASGFNFGSYAMSWVRQAPGKGLEWVSDISGIGSNTYYADSVKGRFTISRDNSDNTLYLDMSSLRAEDTARYYCAKDRKRSGWYEQWGQGTLVTVSS VL: EIVMTQSPATLTLSPGERATLSCRASQSISAYLGWYQQKPGQAPRLLIYDASIRATGIPDRFSGSGSGTDFTLTISSLEPEDSAVYYCHQRSKWPLTFGGGTKVEIK	10	4	–	26	–	–	–	0.1	10	4	26	–	–	–	–	–	–
NI-302.11A4 (antibody, V domains shown) VH: EVQLVESGGGLIQPGGSLRLSCAASGFPVSSSYMSWVRQAPGEGLEWVSVLYRDGDTYYADSVQGRFTISRDNSQNTFYLQMNSLKAEDTAVYYCAGDRRSSHYYYGMDVWGQGTTVTVSS VL: EIVMTQSPGTLSLSPGERATLSCRASQSVSSSYFAWYQQKPGQAPRLLIYGTSRRATAIPDRFSGSGSGTDFTLTISRLEPEDFAVYYCQQYGSSWTFGPGTKVEIK	–	–	–	–	–	–	–	–	–	–	–	1.4	18.2	19	1.4	18	19
NI-302.64E5 (antibody, V domains shown) VH: EVQLVETGGGLVKPGGSLRLSCAASGFTFDQAWMSWVRQVPGKGLEWVGRIKTKTEGEATDYAAPVRGRFTISRDDSEDTVFLQMNSLKTEDTALYYCTSTGVLAAAVDVYWGQGTLVTVSS VL: DIQLTQSPDSLAVSLGERATMTCKSSQSLFYSYNNENYLAWYQQRPGQPPKLLIYWASTRESGVPDRFSGSGSGTDFTLTISSLQAEDVAVYYCQQYYSTPQTFGQGTKVDIK	1.4	0.7	0.1	1.6	–	–	–	–	1.4	0.7	1.6	–	–	–	–	–	–
NI-302.39G12 (antibody, V domains shown) VH: EVQLVQSGGGLVHPWGSLRLSCAASGFSVSNYAITWVRRAPGKGLQYISVIYRDGRTYYGDSVRGRFTISRDDSKNTLYLQMNSLRFEDTAVYYCARAHGQYYYGVDVWGQGTTVTVSS VL: DVVMTQSPLSLSVSPGEPASISCRSSQSLLHSNGYNYLDWYRQKPGQSPQLLIYLSSNRPSGVPDRFSASGSGTEFTLQISRVEAEDVGVYYCMQSLQTFTFGGGTKVDIK	–	–	–	–	–	–	–	–	–	–	–	3.4	15	28	3.4	15	28
